Results: patent US5648233A, “Modified tumor cytotoxic factor (TCF) and DNA encoding such” (Snow Brand Milk Products Co., Ltd., priority 1992, dated 1997)
Several values for one entry are separate records, joined by “and”; a condition that tells them apart may be missing. Equal values may be shown once. Read-outs that look alike come from different tables or passages of the source.

Legend:
Meth A sarcoma = assay: Tumor cytotoxic activity (MTT); format: cell-based; conditions: Meth A cells, 5 days, serial dilution from 50 ng/mL, FIG. 9
Experimental: Tumor cytotoxic activities of TCF, TCF-3 and TCF-13 were measured. Meth A sarcoma was used as a target cell line. The cells were suspended in RPMI medium (GIBCO Co.) supplemented with 10% FCS at a final cell density of 2×10^4 cells per mL. Fifty microliters of the cell suspension was inoculated into each well in 96-well flat-bottomed microtiter plates. The purified TCF, TCF-3 and TCF-13 were serially diluted with RPMI medium from the concentration of 50 ng/mL, and the 50 μL of each diluted sample was added to each test well. After incubation at 37° C. for 5 days, MTT was added at a final concentration of 0.5 mg/ml and the plates were incubated at 37° C. Four hours later, 100 μL of the solution containing 10% SDS and […] was added to each well and left overnight at room temperature. Next day, the absorbance at 620 nm was measured as a parameter of the viable cell numbers in each well.

[1] = rat
Experimental: Anti-TCF polyclonal antibody was dissolved in 0.1M NaHCO3 solution to a final concentration of 10 μg/mL. One hundred microliters of the antibody solution was added to each well and the plates were left overnight at room temperature. The wells were filled with 50% solution of Block Ace in H2 O, incubated for 1 hour at room temperature and washed three times with washing solution (PBS containing 0.1% Tween 20 ). Plasma samples periodically collected from the rats which were intravenously injected with TCF or the modified TCFs were diluted with normal rat serum, when necessary. TCF solutions serially diluted with normal rat serum (from 10 ng/mL) was used as the standard TCF solution. Fifty microliters of the sample solution and 50 μL of the first buffer (0.2M Tris HCl pH 7.3 containing 50% Block Ace, 0.2M NaCl, 0.1% Tween 20, 0.2% CHAPS, 20 mM Benzamidine hydrochloride, and 10 mM EDTA) was mixed and added to each well. The plates were left for 3 hours at 37° C. and washed three times with the washing buffer. One hundred microliters of the peroxidase-labeled anti-TCF antibody solution, which was 400-fold diluted with 0.1M phosphate buffer pH 7.0 containing 10% Block Ace, 0.15M NaCl, 0.1% Tween 20, 4% rat serum and 0.5% mouse IgG, was added to each well. Plates were incubated for hours at 37° C. and washed three times with the washing buffer. Subsequently, 100 μL of substrate solution (0.4 mg/mL of o-phenylene diamine dihydrochloride and 0.006% H2 O2 in 0.1M citrate-phosphate buffer, pH 4.5) was added to each well and incubated at 37° C. for 30 minutes in a dark place. The enzyme reaction was stopped by addition of 50 μL of 6N H2 SO4. The absorbance at 492 nm was measured on an immuno reader (Corona Co.). Thus concentrations of the TCF or the modified TCFs in rat serum were determined.
Time course of plasma levels were examined by EIA in rats after the single intravenous injection of TCF and the modified TCFs. Hale Wister rats weighing about 200 g were used.

[2] = background statement; cited from earlier work
tumor cells = conditions: background statement; cited from earlier work
normal cells = conditions: background statement; cited from earlier work
[3] = single i.v. injection, 50 μg/kg, two-compartment model, Mean ± SD, *P < 0.05, **P < 0.01 vs wild-type TCF

| Substance | tumor cytotoxic activity (in words) (Meth A sarcoma) | bioavailabilities (in words) ([1]; in vivo) | AUC (in words) ([1]; in vivo, iv) | CLtotal (total clearance) ([1]; in vivo, iv) [mL/min/kg] | metabolic fates (in words) ([1]; in vivo, iv) | plasma half-lives (in words) ([1]; in vivo, iv) | t1/2 α (plasma half-life of rapid phase) ([1]; in vivo, iv) [min] | t1/2 β (plasma half-life of slower phase) ([1]; in vivo, iv) [min] | total clearance (in words) ([1]; in vivo, iv) | half-life [2] | cytotoxic activity against tumor cells (in words) (tumor cells) | t1/2 α (plasma half-life of rapid phase) [1, 3] | t1/2 β (plasma half-life of slower phase) [1, 3] [min] | CLtotal (total clearance) ([1]; single i.v. injection, 50 μg/kg, Mean ± SD, **P < 0.01 vs wild-type TCF) [mL/min/kg] | growth stimulating activity for normal cells (in words) (normal cells) |
| --- | --- | --- | --- | --- | --- | --- | --- | --- | --- | --- | --- | --- | --- | --- | --- |
| TCF-3: modified TCF which lacks oligosaccharide chain 3 (Ser at 563rd replaced with Ala) | cytotoxic activities to Meth A cells in a dose-dependent manner | larger bioavailabilities | larger AUC | 18.8 ± 2.1 | slower metabolic fates | prolonged | 2.9 ± 0.3 | 54.2 ± 8.3 | decreased |  |  |  |  |  |  |
| TCF: tumor cytotoxic factor derived from human fibroblast; wild-type glycoprotein with four N-linked oligosaccharide chains | cytotoxic activities to Meth A cells in a dose-dependent manner |  |  |  |  |  |  |  |  | approximately 2 minutes | strong cytotoxic activity against tumor cells | 2.4 ± 2.5 min and 2.4 ± 0.5 min | 15.6 ± 4.6 | 51.5 ± 13.9 | growth stimulating activity for normal cells |
